Assay results reported in US20170247475A1.
Blank lines part the entries; values can stand above or below the substance they belong to.

Legend:
hAng2 [1] = experiment: competition ELISA, blocking of hAng2 binding to hTie2
hAng2 [2] = experiment: competition ELISA, blocking of hAng2 binding to hTie2-Fc
hAng2 [3] = molecular target: hAng2
hAng2 [4] = experiment: competition ELISA, blocking of hAng2 binding to hTie2; remark: listed apart in the source
mAng2 [5] = experiment: competition ELISA mAng2/mTie2-Fc; blocked: mTie2-Fc
hAng2 [6] = experiment: competition ELISA, blocking of hAng2 binding to hTie2-Fc; remark: listed apart in the source
[7] = molecular target: cAng2 (cynomolgus monkey); experiment: competition ELISA, blocking of cAng2 binding to cTie2
mAng2 [8] = experiment: competition ELISA, blocking of mAng2 binding to mTie2-Fc
hAng2 [9] = experiment: competition ELISA, blocking of hAng2 binding to hTie2-Fc; remark: listed apart in the source
hAng2 [10] = experiment: competition ELISA hAng2/hTie2-Fc; blocked: hTie2-Fc
[11] = molecular target: cAng2 (cynomolgus monkey); experiment: competition ELISA, blocking of cAng2 binding to cTie2; remark: listed apart in the source
[12] = molecular target: cAng2 (cynomolgus monkey); experiment: as above; remark: listed apart in the source
mAng2 [13] = experiment: competition ELISA mAng2/mTie2-Fc; blocked: mTie2-Fc; remark: listed apart in the source
hAng2 [14] = experiment: competition ELISA hAng2/hTie2-Fc; blocked: hTie2-Fc; remark: listed apart in the source
mAng2 [15] = experiment: competition ELISA, blocking of mAng2 binding to mTie2
[16] = molecular target: cAng2 (cynomolgus monkey); experiment: competition ELISA, blocking of cAng2 binding to cTie2-Fc
hAng2 [17] = experiment: competition ELISA hAng2/hTie2-Fc; blocked: hTie2-Fc; remark: listed apart in the source
hAng2 [18] = experiment: competition ELISA, blocking of hAng2 binding to hTie2; remark: listed apart in the source
mAng2 [19] = experiment: competition ELISA, blocking of mAng2 binding to mTie2; remark: listed apart in the source
mAng2 [20] = experiment: as above; remark: listed apart in the source
[21] = molecular target: mouse serum albumin (mouse) (UniProt P07724); experiment: SPR, albumin on CM5 chip, multicycle kinetics
[22] = molecular target: human serum albumin (human) (UniProt P02768); experiment: SPR, albumin on CM5 chip, multicycle kinetics
[23] = molecular target: cyno serum albumin (cyno); experiment: SPR, albumin on CM5 chip, multicycle kinetics
[24] = molecular target: mouse serum albumin (mouse) (UniProt P07724); experiment: SPR, albumin on chip, 1:1 interaction model
[25] = molecular target: human serum albumin (human) (UniProt P02768); experiment: SPR, albumin on chip, 1:1 interaction model
[26] = molecular target: cyno serum albumin (cyno); experiment: SPR, albumin on chip, 1:1 interaction model

mouse serum albumin (mouse), sequence (P07724 25-608 limits assumed): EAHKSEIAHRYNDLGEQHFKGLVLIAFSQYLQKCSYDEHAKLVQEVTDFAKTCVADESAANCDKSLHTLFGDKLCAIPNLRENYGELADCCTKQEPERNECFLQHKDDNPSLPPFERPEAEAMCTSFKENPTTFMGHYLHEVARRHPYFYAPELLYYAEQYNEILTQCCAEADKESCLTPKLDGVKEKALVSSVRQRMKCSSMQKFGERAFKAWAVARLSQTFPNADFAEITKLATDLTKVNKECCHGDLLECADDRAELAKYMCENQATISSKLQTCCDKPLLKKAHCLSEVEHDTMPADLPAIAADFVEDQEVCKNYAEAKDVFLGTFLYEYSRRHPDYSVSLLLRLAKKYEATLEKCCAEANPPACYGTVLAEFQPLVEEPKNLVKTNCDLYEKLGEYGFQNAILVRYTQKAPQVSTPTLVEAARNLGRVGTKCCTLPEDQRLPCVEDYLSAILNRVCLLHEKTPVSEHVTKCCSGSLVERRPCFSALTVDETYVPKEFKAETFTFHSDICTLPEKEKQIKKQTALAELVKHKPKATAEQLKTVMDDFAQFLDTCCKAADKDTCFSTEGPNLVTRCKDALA
cyno serum albumin (cyno), sequence (A2V9Z4 25-608): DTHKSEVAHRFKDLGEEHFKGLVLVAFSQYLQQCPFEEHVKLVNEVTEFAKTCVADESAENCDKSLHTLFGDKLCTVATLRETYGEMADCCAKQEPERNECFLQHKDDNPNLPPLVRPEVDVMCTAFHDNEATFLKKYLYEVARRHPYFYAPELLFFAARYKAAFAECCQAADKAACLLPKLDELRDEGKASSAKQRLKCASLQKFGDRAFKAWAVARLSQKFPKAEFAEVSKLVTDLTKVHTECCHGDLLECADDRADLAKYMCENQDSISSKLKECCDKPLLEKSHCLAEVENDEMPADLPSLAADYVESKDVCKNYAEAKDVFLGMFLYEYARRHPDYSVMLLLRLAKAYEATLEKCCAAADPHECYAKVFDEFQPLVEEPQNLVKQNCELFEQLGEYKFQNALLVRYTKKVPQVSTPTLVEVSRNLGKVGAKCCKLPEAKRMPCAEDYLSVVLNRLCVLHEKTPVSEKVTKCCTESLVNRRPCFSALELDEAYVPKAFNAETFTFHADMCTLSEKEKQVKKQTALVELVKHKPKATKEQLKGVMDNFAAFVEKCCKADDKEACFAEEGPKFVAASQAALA
mAng2, sequence (chain, as listed by the source limits assumed): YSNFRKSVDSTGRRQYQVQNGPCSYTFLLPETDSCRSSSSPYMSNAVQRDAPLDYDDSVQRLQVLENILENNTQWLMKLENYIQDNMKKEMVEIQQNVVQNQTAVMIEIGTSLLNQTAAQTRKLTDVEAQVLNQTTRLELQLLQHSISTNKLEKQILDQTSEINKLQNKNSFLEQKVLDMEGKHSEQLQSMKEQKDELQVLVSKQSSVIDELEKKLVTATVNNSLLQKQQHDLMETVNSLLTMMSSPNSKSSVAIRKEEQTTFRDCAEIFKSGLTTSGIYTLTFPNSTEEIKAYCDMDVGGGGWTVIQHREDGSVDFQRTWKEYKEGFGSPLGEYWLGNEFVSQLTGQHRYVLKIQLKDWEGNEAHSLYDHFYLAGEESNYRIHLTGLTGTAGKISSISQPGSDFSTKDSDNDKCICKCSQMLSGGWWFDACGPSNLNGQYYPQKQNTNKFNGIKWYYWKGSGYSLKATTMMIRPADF
hAng2, sequence (chain, as listed by the source limits assumed): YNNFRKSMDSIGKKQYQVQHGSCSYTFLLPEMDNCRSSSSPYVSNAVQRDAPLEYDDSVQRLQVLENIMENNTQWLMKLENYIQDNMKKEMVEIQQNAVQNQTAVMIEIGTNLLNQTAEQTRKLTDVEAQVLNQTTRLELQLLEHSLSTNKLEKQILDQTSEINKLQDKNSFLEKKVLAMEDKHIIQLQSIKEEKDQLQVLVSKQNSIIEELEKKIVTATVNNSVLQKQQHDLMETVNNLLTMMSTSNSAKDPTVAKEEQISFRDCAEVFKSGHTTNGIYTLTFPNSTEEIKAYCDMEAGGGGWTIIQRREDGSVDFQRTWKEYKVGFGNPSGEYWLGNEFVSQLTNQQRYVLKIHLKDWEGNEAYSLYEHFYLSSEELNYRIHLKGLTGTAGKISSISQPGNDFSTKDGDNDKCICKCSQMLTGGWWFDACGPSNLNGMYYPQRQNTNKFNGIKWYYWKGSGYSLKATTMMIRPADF

- IC50 (read off the curve) (hAng2 [1]): 3 pM
- IC50 (read off the curve) (hAng2 [2]): 3 pM
- IC50 (read off the curve) (hAng2 [4]): 1 pM
- IC50 (read off the curve) (mAng2 [5]): 6 pM
- IC50 (read off the curve) (hAng2 [6]): 3 pM
- IC50 (read off the curve) [7]: 4 pM
- IC50 (read off the curve) (mAng2 [8]): 2 pM
- IC50 (read off the curve) (hAng2 [9]): 2 pM
- IC50 (read off the curve) (hAng2 [10]): 7 pM
- IC50 (read off the curve) [11]: 3 pM
- IC50 (read off the curve) [12]: 30 pM
- IC50 (read off the curve) (mAng2 [13]): 5 pM
- IC50 (read off the curve) (hAng2 [14]): 4 pM
- IC50 (read off the curve) (mAng2 [15]): 9 pM
- IC50 (read off the curve) [16]: 10 pM
- IC50 (read off the curve) (hAng2 [17]): 6 pM
- IC50 (read off the curve) (hAng2 [18]): 6 pM
- IC50 (read off the curve) (mAng2 [19]): 1 pM
- IC50 (read off the curve) (mAng2 [20]): 3 pM
Substance: AMG386
- IC50 (read off the curve), hAng2 mediated HUVEC survival (hAng2 [3]): 1000 pM

- Kd [21]: 49000 pM
- koff [21]: 0.032 s⁻¹
- Kd [22]: 4000 pM
- koff [22]: 0.0018 s⁻¹
- Kd [23]: 4000 pM
- koff [23]: 0.0016 s⁻¹
- Kd [24]: 51000 pM
- koff [24]: 0.03 s⁻¹
- Kd [25]: 4000 pM
- koff [25]: 0.0019 s⁻¹
- Kd [26]: 4000 pM
Substance: ALB11 (VHH)
